Data: the supplement of paper PMC9112550, “Optimization of the antimicrobial peptide Bac7 by deep mutational scanning” (BMC Biology, 2022)

Tested on: Escherichia coli TOP10
Assay: shrunken log2 fold change of peptide-encoding DNA abundance (4.5 h post-induction vs induction); higher = less antimicrobial activity (less host growth inhibition)
Details: time post-induction: 4.5 h; library: site-saturation at positions 5, 18, 19, 20
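Further: peptides expressed intracellularly from a pBAD plasmid library in pooled LB shake-flask culture, induced with 0.3% L-arabinose, DNA abundance read by NGS, three biological replicates, DESeq2 with apeglm shrinkage.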

Sequence	shrunken log2 fold change
RRIRARPPRLPRPRPRPEWKPRP	0.0235
RRIRARPPRLPRPRPRPEYEPRP	0.262
RRIRARPPRLPRPRPRPEYIPRP	0.0332
RRIRARPPRLPRPRPRPFAMPRP	0.236
RRIRARPPRLPRPRPRPFAWPRP	0.122
RRIRARPPRLPRPRPRPFDFPRP	0.00925
RRIRARPPRLPRPRPRPFDLPRP	0.0229
RRIRARPPRLPRPRPRPFDNPRP	0.098
RRIRARPPRLPRPRPRPFEGPRP	0.0201
RRIRARPPRLPRPRPRPFFAPRP	0.67
RRIRARPPRLPRPRPRPFGFPRP	0.261
RRIRARPPRLPRPRPRPFGIPRP	0.0411
RRIRARPPRLPRPRPRPFGLPRP	2.49
RRIRARPPRLPRPRPRPFGSPRP	-0.0315
RRIRARPPRLPRPRPRPFICPRP	-0.1
RRIRARPPRLPRPRPRPFLIPRP	-0.367
RRIRARPPRLPRPRPRPFMEPRP	0.0746
RRIRARPPRLPRPRPRPFMTPRP	0.178
RRIRARPPRLPRPRPRPFMYPRP	-0.225
RRIRARPPRLPRPRPRPFNGPRP	0.0657

Sequence	shrunken log2 fold change
RRIRARPPRLPRPRPRPFNLPRP	-0.173
RRIRARPPRLPRPRPRPFPRPRP	0.0695
RRIRARPPRLPRPRPRPFPYPRP	-0.164
RRIRARPPRLPRPRPRPFQTPRP	-0.0176
RRIRARPPRLPRPRPRPFRAPRP	0.0497
RRIRARPPRLPRPRPRPFRSPRP	-0.0968
RRIRARPPRLPRPRPRPFTFPRP	-0.0365
RRIRARPPRLPRPRPRPFVKPRP	0.0302
RRIRARPPRLPRPRPRPFWWPRP	0.923
RRIRARPPRLPRPRPRPGCFPRP	0.96
RRIRARPPRLPRPRPRPGCVPRP	0.851
RRIRARPPRLPRPRPRPGERPRP	0.56
RRIRARPPRLPRPRPRPGHMPRP	-0.0412
RRIRARPPRLPRPRPRPGMIPRP	0.237
RRIRARPPRLPRPRPRPGNAPRP	0.73
RRIRARPPRLPRPRPRPGPDPRP	0.455
RRIRARPPRLPRPRPRPGPMPRP	0.676
RRIRARPPRLPRPRPRPGQCPRP	0.203
RRIRARPPRLPRPRPRPGQFPRP	0.109
RRIRARPPRLPRPRPRPGWTPRP	0.525

Sequence	shrunken log2 fold change
RRIRARPPRLPRPRPRPGYGPRP	0.277
RRIRARPPRLPRPRPRPGYNPRP	-0.403
RRIRARPPRLPRPRPRPGYTPRP	0.324
RRIRARPPRLPRPRPRPHAAPRP	0.635
RRIRARPPRLPRPRPRPHAEPRP	0.955
RRIRARPPRLPRPRPRPHCMPRP	0.19
RRIRARPPRLPRPRPRPHCWPRP	0.17
RRIRARPPRLPRPRPRPHDGPRP	0.373
RRIRARPPRLPRPRPRPHDIPRP	-0.08
RRIRARPPRLPRPRPRPHEDPRP	0.627
RRIRARPPRLPRPRPRPHESPRP	0.779
RRIRARPPRLPRPRPRPHFMPRP	0.787
RRIRARPPRLPRPRPRPHFYPRP	0.107
RRIRARPPRLPRPRPRPHHCPRP	-0.859
RRIRARPPRLPRPRPRPHILPRP	-0.207
RRIRARPPRLPRPRPRPHIRPRP	-0.0962
RRIRARPPRLPRPRPRPHKGPRP	0.187
RRIRARPPRLPRPRPRPHKQPRP	-0.0718
RRIRARPPRLPRPRPRPHKYPRP	-0.243
RRIRARPPRLPRPRPRPHLHPRP	0.0371
